Test results taken from the RNAGym collection of RNA variant scans (doi:10.7554/elife.80360).

B1: CPEB3 Ribozyme (parent)
chain: GGGGGCCACAGCAGAAGCGUUCACGUCGCGGCCCCUGUCAGAUUCUGGUGAAUCUGCGAAUUCUGCUGU

Variants of: B1
Experiment: self-cleavage, relative activity (ratio to wild type); higher = more cleavage; co-transcriptional

Variant	self-cleavage
U49G G56U	0.978
U49G G58A	0.912
U49G G65C	0.607
U49G G65U	0.787
U49G G68U	1.01
U49G U55C	0.814
U49G U55G	0.819
U49G U61A	0.921
U49G U61C	0.802
U49G U62A	0.937
U49G U62C	0.923
U49G U62G	0.898
U49G U64A	0.985
U49G U67A	1.04
U49G U67G	1.05
U49G U69G	1.02
G50A A51G	0.978
G50A A51U	0.987
G50A A52C	1.04
G50A A52U	0.993
G50A A59G	1.02
G50A A59U	0.834
G50A A60C	0.369
G50A A60G	1.02

Variant	self-cleavage
G50A A60U	0.449
G50A C54A	0.81
G50A C57G	0.301
G50A C63A	0.856
G50A C63G	0.859
G50A C66U	1.01
G50A G56A	0.909
G50A G58A	1.01
G50A G58U	1.02
G50A G65A	0.901
G50A G65U	0.882
G50A G68C	1.02
G50A G68U	1.02
G50A U53C	0.949
G50A U53G	0.9
G50A U55A	0.912
G50A U61A	0.862
G50A U61C	0.799
G50A U62A	0.986
G50A U62C	0.949
G50A U62G	0.959
G50A U64A	0.937
G50A U67A	0.989
G50A U69C	1.07

Variant	self-cleavage
G50A U69G	1.06
G50C A51U	0.942
G50C A52C	0.946
G50C A52G	0.985
G50C A59C	0.68
G50C A59G	1.03
G50C A59U	0.767
G50C A60C	0.34
G50C A60U	0.456
G50C C54G	0.654
G50C C54U	0.921
G50C C57A	0.366
G50C C57U	0.384
G50C C63A	0.813
G50C C63G	0.738
G50C C63U	0.97
G50C C66A	0.728
G50C C66G	0.853
G50C C66U	0.981
G50C G56A	0.831
G50C G56U	0.842
G50C G58C	0.963
G50C G58U	0.995
G50C G65A	0.885

Variant	self-cleavage
G50C G65C	0.585
G50C G68C	0.964
G50C G68U	0.973
G50C U53C	0.866
G50C U53G	0.654
G50C U55A	0.794
G50C U55C	0.486
G50C U55G	0.685
G50C U61A	0.823
G50C U61C	0.762
G50C U61G	0.526
G50C U62A	0.968
G50C U62C	0.763
G50C U62G	0.755
G50C U64C	0.823
G50C U64G	0.844
G50C U67C	0.994
G50C U67G	1.02
G50C U69A	0.978
G50C U69G	1.06
G50U A51G	1.01
G50U A51U	0.995
G50U A52C	0.979
G50U A52U	0.94

Variant	self-cleavage
G50U A59G	1.04
G50U A59U	0.834
G50U A60U	0.515
G50U C54A	0.858
G50U C54U	0.968
G50U C57A	0.355
G50U C57G	0.264
G50U C57U	0.366
G50U C63A	0.874
G50U C63U	0.974
G50U G56A	0.928
G50U G56U	0.91
G50U G58A	0.948
G50U G58U	1.03
G50U G65A	0.953
G50U G68A	1.01
G50U G68C	1.03
G50U U53A	0.999
G50U U55C	0.766
G50U U61A	0.97
G50U U61C	0.841
G50U U61G	0.857
G50U U62A	0.989
G50U U62G	0.977

Variant	self-cleavage
G50U U64A	0.954
G50U U67C	1.01
G50U U69A	0.99
G50U U69C	1.09
G50U U69G	1.05
A51C	0.989
A51C A52C	0.949
A51C A52G	0.914
A51C A59C	0.658
A51C A59G	0.96
A51C A59U	0.742
A51C A60G	0.85
A51C A60U	0.468
A51C C54G	0.585
A51C C54U	0.928
A51C C57A	0.294
A51C C57U	0.338
A51C C63A	0.748
A51C C63U	0.942
A51C C66A	0.628
A51C C66G	0.777
A51C C66U	0.937
A51C G56A	0.856
A51C G56U	0.8

Variant	self-cleavage
A51C G58A	0.92
A51C G58C	0.957
A51C G58U	1.03
A51C G65A	0.807
A51C G65C	0.64
A51C G68A	0.961
A51C G68C	0.996
A51C G68U	1.01
A51C U53A	0.851
A51C U53C	0.781
A51C U55A	0.643
A51C U61A	0.813
A51C U62A	0.901
A51C U62C	0.76
A51C U64A	0.866
A51C U64C	0.787
A51C U67A	0.961
A51C U67G	0.993
A51C U69A	1.05
A51C U69C	1.08
A51C U69G	1.01
A51G	0.994
A51G A52C	0.94
